From IntAct's records for PubMed 18682563

B1: Inner tegument protein (Human herpesvirus 1 (strain 17) (HHV-1)), P10221 (parent)
chain: MADRGLPSEAPVVTTSPAGPPSDGPMQRLLASLAGLRQPPTPTAETANGADDPAFLATAKLRAAMAAFLLSGTAIAPADARDCWRPLLEHLCALHRAHGLPETALLAENLPGLLVHRLVVALPEAPDQAFREMEVIKDTILAVTGSDTSHALDSAGLRTAAALGPVRVRQCAVEWIDRWQTVTKSCLAMSPRTSIEALGETSLKMAPVPLGQPSANLTTPAYSLLFPAPFVQEGLRFLALVSNRVTLFSAHLQRIDDATLTPLTRALFTLALVDEYLTTPERGAVVPPPLLAQFQHTVREIDPAIMIPPLEANKMVRSREEVRVSTALSRVSPRSACAPPGTLMARVRTDVAVFDPDVPFLSSSALAVFQPAVSSLLQLGEQPSAGAQQRLLALLQQTWTLIQNTNSPSVVINTLIDAGFTPSHCTHYLSALEGFLAAGVPARTPTGHGLGEVQQLFGCIALAGSNVFGLAREYGYYANYVKTFRRVQGASEHTHGRLCEAVGLSGGVLSQTLARIMGPAVPTEHLASLRRALVGEFETAERRFSSGQPSLLRETALIWIDVYGQTHWDITPTTPATPLSALLPVGQPSHAPSVHLAAATQIRFPALEGIHPNVLADPGFVPYVLALVVGDALRATCSAAYLPRPVEFALRVLAWARDFGLGYLPTVEGHRTKLGALITLLEPAARGGLGPTMQMADNIEQLLRELYVISRGAVEQLRPLVQLQPPPPPEVGTSLLLISMYALAARGVLQDLAERADPLIRQLEDAIVLLRLHMRTLSAFFECRFESDGRRLYAVVGDTPDRLGPWPPEAMGDAVSQYCSMYHDAKRALVASLASLRSVITETTAHLGVCDELAAQVSHEDNVLAVVRREIHGFLSVVSGIHARASKLLSGDQVPGFCFMGQFLARWRRLSACYQAARAAAGPEPVAEFVQELHDTWKGLQTERAVVVAPLVSSADQRAAAIREVMAHAPEDAPPQSPAADRVVLTSRRDLGAWGDYSLGPLGQTTAVPDSVDLSRQGLAVTLSMDWLLMNELLRVTDGVFRASAFRPLAGPESPRDLEVRDAGNSLPAPMPMDAQKPEAYGHGPRQADREGAPHSNTPVEDDEMIPEDTVAPPTDLPLTSYQ
partner: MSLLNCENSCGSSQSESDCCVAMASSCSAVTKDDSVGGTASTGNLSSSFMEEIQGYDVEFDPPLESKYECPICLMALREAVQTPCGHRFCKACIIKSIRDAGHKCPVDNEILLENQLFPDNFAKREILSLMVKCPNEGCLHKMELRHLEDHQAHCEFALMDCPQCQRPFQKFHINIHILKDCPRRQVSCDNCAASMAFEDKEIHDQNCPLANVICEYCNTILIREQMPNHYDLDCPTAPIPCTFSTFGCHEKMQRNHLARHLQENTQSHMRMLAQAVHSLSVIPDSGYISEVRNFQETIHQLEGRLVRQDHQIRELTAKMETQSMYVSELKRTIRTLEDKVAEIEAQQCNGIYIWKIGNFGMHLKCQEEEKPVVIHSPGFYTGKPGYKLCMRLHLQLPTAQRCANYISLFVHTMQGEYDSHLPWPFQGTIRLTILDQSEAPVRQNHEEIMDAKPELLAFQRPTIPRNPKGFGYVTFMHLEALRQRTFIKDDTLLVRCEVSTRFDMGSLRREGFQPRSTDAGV

Variants of: B1
Settings: with traf6_human TRAF6, Q9Y4K3

Variant | effect of a mutation on the interaction
E1101A | decreasing interaction strength
